{
  "source": "paper PMC4996508",
  "target": "Neurospora crassa importin-α (residues 75-529) (Neurospora crassa)",
  "sequence (G5EB89 other isoform, or with tags, fused parts or gaps)": "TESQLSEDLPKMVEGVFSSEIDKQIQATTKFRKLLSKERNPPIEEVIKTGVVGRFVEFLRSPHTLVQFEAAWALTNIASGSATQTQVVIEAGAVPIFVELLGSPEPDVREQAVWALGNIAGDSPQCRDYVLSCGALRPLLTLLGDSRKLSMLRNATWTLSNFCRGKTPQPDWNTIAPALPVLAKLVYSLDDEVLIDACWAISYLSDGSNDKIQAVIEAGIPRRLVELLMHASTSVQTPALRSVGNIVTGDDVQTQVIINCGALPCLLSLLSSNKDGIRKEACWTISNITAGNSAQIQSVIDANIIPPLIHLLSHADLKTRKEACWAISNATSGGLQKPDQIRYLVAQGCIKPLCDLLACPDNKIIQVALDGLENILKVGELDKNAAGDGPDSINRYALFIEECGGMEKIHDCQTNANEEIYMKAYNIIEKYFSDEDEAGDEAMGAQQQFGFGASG",
  "assay": "ITC; importin-α (50 μM) in the cell, PAC-3 NLS peptide (500 μM) titrated from the syringe; 20°C; 20 mM Tris-HCl pH 8.0, 100 mM NaCl; single binding site model",
  "data": [
    {"substance": "PAC-3 NLS peptide", "values": [
      {"measurement": "Kd", "value": 390, "unit": "nM"},
      {"measurement": "dH", "value": -12.1, "unit": "kcal/mol"},
      {"measurement": "stoichiometry N", "value": 1}
    ]}
  ]
}
